Test results: the supplement of paper PMC12042874
± gives the uncertainty stated by the source.

Assay: amyloid nucleation score (Sup35N fusion, yeast selection) (log enrichment); library NNK1; higher = more nucleation; inactive = no reads after selection
Outline: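 Sup35N fusions to peptides of 20 random codons were expressed in psi-negative yeast, induced 24 hours with 100 μM copper sulfate, and grown 7 days at 30°C on medium lacking adenine and uracil. Input and output plasmid inserts were sequenced by Illumina. The nucleation score is the DiMSum log enrichment of output over input reads, centred on the mode score of non-aggregating sequences. Sequences with under 100 input reads were excluded.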

| Substance | amyloid nucleation score |
| --- | --- |
| WVHVCGGHCNWLICSMASNG | 7.889 ± 0.061 |
| WVTVPNTKKTNVLFGQWTIV | -0.379 ± 0.39 |
| WVVIR | -0.369 ± 1.5 |
| WVYMANRVEYRRASRNMS | inactive |
| WWNIEEM | -0.271 ± 0.24 |
| WWSYRKCRALNRRFQFFSYR | inactive |
| WYEWSPFSSTWRSSIVLFNL | 0.417 ± 0.56 |
| YACESGMEIMHYRHMSGGVV | 0.732 ± 1 |
| YAEVGGLYSTSGVRRKNGGR | 0.346 ± 0.32 |
| YAFIG | -1.07 ± 1.5 |
| YAFWFLCGYALP | 2.92 ± 0.12 |
| YAINMVYYV | 1.16 ± 0.29 |
| YAITRSAVICSNLALNMEC | 2.09 ± 0.23 |
| YAKVLTK | -0.104 ± 0.33 |
| YALRFFDDYESAAGSVR | -0.454 ± 0.66 |
| YARGMCWVRVWLNVQVSAWS | 0.398 ± 0.53 |
| YARWVGVSKVRNTQICNSMR | -0.543 ± 0.79 |
| YATDCLLVSFGTSGECIHRL | inactive |
| YAYYLSDRVCFD | 0.303 ± 0.4 |
| YCDRDLKNKVLSNV | -0.132 ± 0.42 |
| YCIGYGKICSYMRIVSSGLQ | 0.901 ± 0.24 |
| YCIPTVRVFL | 0.575 ± 0.66 |
| YCLQRQRRKGRSRSSMPEDE | 1.52 ± 0.52 |
| YCNGSLLRLAYMFGSGVSPR | 0.935 ± 0.46 |
| YCTLRESKPPMDGSM | -0.898 ± 1.7 |

| Substance | amyloid nucleation score |
| --- | --- |
| YCTTAIGSKSLVDIWHAGCS | -0.412 ± 1.2 |
| YCYEQVDSV | 0.154 ± 0.42 |
| YDFTDFPSPTFRYFVLIGNA | 0.333 ± 0.54 |
| YDHGRWDSTVSGLRDVMLDV | inactive |
| YDLTSFGFSVIVCSDDTRSG | -0.043 ± 0.75 |
| YDRAWMLRPTLLWLTQTVVR | 2.21 ± 0.13 |
| YDVLEDSHELMMCFCVRGHW | -0.155 ± 1 |
| YENHGISDLSCIFTPYKV | inactive |
| YFAVDDNYLHIQTSVRSRCS | 0.036 ± 0.41 |
| YFAVWSSRDTFRFYLILINP | -0.427 ± 0.33 |
| YFEFSIHSQRYIQWSHYLVL | -1.05 ± 1.7 |
| YFGLRSVKRWQT | -0.106 ± 0.52 |
| YFGSLYERGRIIGRRVMR | 0.267 ± 0.32 |
| YFIARREQFWIMLPGELALE | -0.756 ± 1.7 |
| YFIFFLSNVFASSVIILMYM | -0.071 ± 0.36 |
| YFISVVFASGKGW | -0.387 ± 0.8 |
| YFLLPYADRIHHLSVNCFWM | -0.008 ± 0.93 |
| YFMFSLCSYSNYWLRWGFV | 0.121 ± 0.22 |
| YFPGVSRGQVDEPVYLCCQR | 0.068 ± 0.57 |
| YFRSSGGAFFGNLDVCGNYV | 0.124 ± 0.48 |
| YFSFIWMYKMDIMTI | -0.117 ± 0.35 |
| YFSSYFV | 0.118 ± 0.41 |
| YFSVGSCNRYLHWTVQ | 5.06 ± 0.075 |
| YFSWLFPFIDLSRVSASMPT | 2.69 ± 0.2 |
| YFTLFDSRKTVLRSENNTRW | 0.578 ± 0.32 |

| Substance | amyloid nucleation score |
| --- | --- |
| YFVHQNKHRTKIIILGLGLI | 1.35 ± 0.5 |
| YFVLALWFIGCYECLYLWLC | 1.21 ± 0.59 |
| YFVMGLIFGLKRLLVLAIRR | -0.53 ± 0.3 |
| YFWMIPMTGEVHNCPDLAPK | 0.386 ± 0.33 |
| YGASI | 0.136 ± 0.47 |
| YGDDRWYIRSIIEDCQLGGF | -0.716 ± 0.5 |
| YGFLNPTSSR | 0.632 ± 0.5 |
| YGLIGM | 0.24 ± 0.37 |
| YGNKTYFAPR | 0.557 ± 0.51 |
| YGSGPNDWLYVWGNSLWQKV | -0.106 ± 0.66 |
| YGVCT | 0.49 ± 0.22 |
| YGVVYNIWHFIEMKGDYTHA | 6.869 ± 0.055 |
| YHDVRLMVRVHVFWLF | 1.03 ± 0.37 |
| YHIRVAWQFVGADI | -0.535 ± 1 |
| YHPRTSYFCDVVFRGPERGN | 1.87 ± 0.69 |
| YHSKLFVGGYWLYREDGREY | 0.812 ± 0.24 |
| YHVDC | -0.13 ± 0.34 |
| YHVSLLSI | 0.169 ± 0.65 |
| YIDKG | -0.893 ± 1.9 |
| YIDSLISLITDSCMNHRDGR | -0.29 ± 1.1 |
| YILGVRSSYSMFMESQCL | 0.543 ± 0.23 |
| YILNGVPVKAFFLGYGADYS | -0.979 ± 1.3 |
| YIMILSYAVNKSYFTRLSCN | -0.459 ± 0.67 |
| YINTGVLYFGFCGL | 7.117 ± 0.06 |
| YITAWEWVQRRVV | 2.46 ± 0.18 |

| Substance | amyloid nucleation score |
| --- | --- |
| YKATRRRQLLSPVIGEDQIG | 0.208 ± 0.32 |
| YKDIMHHVN | inactive |
| YKGMSAHFGLILFDCCLNGS | 7.516 ± 0.067 |
| YKGYYCGSDDFPDSEKPEDG | -0.256 ± 0.32 |
| YKIVIKSGQSAN | -0.252 ± 0.28 |
| YKLKFIRGACHSS | 0.9 ± 0.63 |
| YKSLLGRAVMFKRHQPGPRA | 0.248 ± 0.39 |
| YLCQRHSFTRSRYHFLLRPV | -1.02 ± 1.2 |
| YLCRLDLTTDRKSTGLLCGC | 0.022 ± 0.34 |
| YLCRRT | 0.675 ± 0.63 |
| YLDGTNSMNAEGNLLNKAPV | 0.189 ± 0.31 |
| YLDRSRLMIKCHVHVKYVYY | 7.92 ± 0.048 |
| YLDSSFFCFLVAIKMDDARH | 6.08 ± 0.087 |
| YLERIGATYMGG | 0.601 ± 0.4 |
| YLFSFWFPRYRHVIFIGYTL | 0.531 ± 0.53 |
| YLINLRFCEREAGFNFLLGR | -1.12 ± 2.7 |
| YLIYVMPADVMAYWYCFT | -0.379 ± 0.61 |
| YLLCFWILCFTAVGIFTGFN | 0.456 ± 0.25 |
| YLLCMGMVFSIGKFSSIPCP | inactive |
| YLQVGASADWKLTYSGSGNV | 2.72 ± 0.23 |
| YLSMFVWTGGNM | 2.08 ± 0.31 |
| YLTWYNRYCVRYITNYHPMK | 5.96 ± 0.079 |
| YLWILDMAREDELHATCSGE | -0.558 ± 0.66 |
| YLWVIATLQFEV | -0.783 ± 0.63 |
| YMCTLRGGGSDCTWAYPKWG | 0.275 ± 0.48 |

| Substance | amyloid nucleation score |
| --- | --- |
| YMKLKRVDMSVYSCCLVFGH | -0.648 ± 0.73 |
| YMKWTNDVNDTLDILFCVYL | 3.84 ± 0.069 |
| YMLSDLITCLCVAEELFRGQ | 4.81 ± 0.098 |
| YMLSLSPPRRC | 0.25 ± 0.33 |
| YMVFVVVSI | 0.946 ± 0.24 |
| YMVSCYLAGNQDSVVCSVKW | 2.23 ± 0.18 |
| YNPIVWSTAY | inactive |
| YNREWYYIWLLREFDVRKHS | 1.43 ± 0.53 |
| YNSFKAVNPLKVGLVYMLKL | 0.021 ± 0.55 |
| YNSRRCNIHFNFIGKC | 6.783 ± 0.054 |
| YNSWFI | 0.586 ± 0.55 |
| YNVMYTFLHFAIGTAISRTW | -0.798 ± 0.76 |
| YPCHSREMHYCREWVRDLST | -0.396 ± 0.62 |
| YPGFVCKVWIVVARKSFELE | inactive |
| YPTYCLGCMS | 0.672 ± 0.51 |
| YPYTSLRQGRDTRNREGLQC | 0.301 ± 0.61 |
| YQCYSFRVNFGGCWLAQHLL | 4.64 ± 0.13 |
| YQVCTFSNNGIWLWRLSIPH | 1.81 ± 0.23 |
| YREDKHCIHCWGVMGV | -2.16 ± 2.4 |
| YRESSATGMMSGSDLKRWQV | -2 ± 2.4 |
| YRGVQCFKATKNARVLLWVV | -0.051 ± 0.52 |
| YRGWVVQGIHLKFSCFAELR | 0.333 ± 0.97 |
| YRLCSMSMRCGLRSIFSNRL | 0.606 ± 0.57 |
| YRLRYI | inactive |
| YRMIIVGLCFMVVHMAASRK | 0.514 ± 0.69 |

| Substance | amyloid nucleation score |
| --- | --- |
| YRMVCVLITVPANQIYCLLH | 0.541 ± 0.69 |
| YSAVWRSMYTQNLWVPTGMG | 1.83 ± 0.27 |
| YSDCDGTMCYVDAYMCGYMA | 3.46 ± 0.077 |
| YSHYNTIGLYILSKVSSMAV | inactive |
| YSILMVNWMFWCFVEAWNHD | 0.623 ± 0.56 |
| YSLIVTRCC | -0.468 ± 0.41 |
| YSLLTVASREVSKQSGTSRI | 0.42 ± 1.2 |
| YSMLQFWDRAAMSV | -0.294 ± 1.5 |
| YSRNNIIHFRFISALLPEEV | 0.683 ± 0.37 |
| YSSLRGWLC | inactive |
| YSSNWIMLIIRVMIHFFSSR | 3.46 ± 0.17 |
| YSSSPVFGCEAPGDYQLGY | 1.24 ± 0.76 |
| YSTYLSS | 1.4 ± 0.66 |
| YSYNRSIASFFYFMSYCVSL | inactive |
| YTLILREIYWCC | -0.128 ± 0.54 |
| YTQFYVLESIYRTTLCP | 0.554 ± 0.58 |
| YTSKSMRGFSKKSLFDMTFK | 0.126 ± 0.79 |
| YTTDREFLPICKDAATRDFL | -0.057 ± 1.1 |
| YTTIYLVIFSFC | 6.48 ± 0.068 |
| YTTVLAYLLTLDVGSSALSG | -0.465 ± 1.2 |
| YTYMHRNDEFALM | inactive |
| YVDIPVVVS | 0.235 ± 0.32 |
| YVFSG | -0.202 ± 0.32 |
| YVLRSAMACLCDCVCESCGG | 2.71 ± 0.12 |
| YVLSFYHQVGPALGFIRQWI | -1.04 ± 0.69 |

| Substance | amyloid nucleation score |
| --- | --- |
| YVPALYRVSGLCYLLTNHEF | 0.557 ± 0.18 |
| YVPMRETGCRDSTYIEWFWY | -0.057 ± 0.24 |
| YVQFCGQHARR | -0.516 ± 1.7 |
| YVSADLGMYTVDGAEFYCEN | 0.106 ± 0.43 |
| YVVGARNEVRGYRVGTRLIR | 0.155 ± 1.5 |
| YVVWQFNWLDTTHHFFELSG | -0.022 ± 0.69 |
| YVWIRIVVVLVRRMCNTDTQ | inactive |
| YVWMSDPSVTNHRGRLVDMG | 5.02 ± 0.098 |
| YVYNFMYTVNCMVEPFWLEC | 7.12 ± 0.048 |
| YWDGYEVDVNGVREYEGNAV | 0.305 ± 0.19 |
| YWGARNCLLYWWYGLTTEGS | 0.028 ± 0.44 |
| YWLLT | -0.501 ± 0.55 |
| YWPGFSNRFR | 0.397 ± 0.75 |
| YWPPGFAVS | 1.01 ± 0.81 |
| YWRKLQYRMAGN | 0.265 ± 0.64 |
| YWTDGLFGDAT | 0.141 ± 0.31 |
| YWYNNAWASLWFQAWVDWYI | 0.446 ± 0.33 |
| YYASVTYFILYSHRIELVVR | 1 ± 0.65 |
| YYCRNPRSMG | -0.134 ± 1.1 |
| YYEAGQEPVNGMCSP | 0.07 ± 1.1 |
| YYFEVAVGQMSFTANVLVLS | 2.34 ± 0.28 |
| YYMRGTKRRIVRVYFWMLRC | 1.59 ± 0.4 |
